Results reported in patent publication US8785185B2, “Differentiation of human embryonic stem cells” (Janssen Biotech, Inc., priority 2009, dated 2014).

Experiments:
Format in all cases: cell-based
[1] = test system: human embryonic stem cell line H1; experiment: Real-time PCR of pancreatic markers at stage 3 day 4, Treatments 1-3 (Table 1); conditions: normalized to treatment 1, stage 3 treatment for four days
Description: (§1) RPMI medium (Catalogue #22400, Invitrogen, Ca) supplemented with 2% BSA (Catalog #152401, MP Biomedical, Ohio), and 100 ng/ml activin A (R&D Systems, MN) plus 20 ng/ml WNT-3a (Catalog #1324-WN-002, R&D Systems, MN) plus 8 ng/ml of bFGF (Catalog #100-18B, PeproTech, NJ), for one day followed by treatment with RPMI media supplemented with 2% BSA and 100 ng/ml activin A plus 8 ng/ml of bFGF for an additional two days (Stage 1), then • b. DMEM/F12 (Catalogue #11330, Invitrogen, Ca)+2% BSA+50 ng/ml FGF7 for three days (Stage 2), then • c. Either Treatment 1: DMEM (high glucose)+1% B27 (Invitrogen, CA)+50 ng/ml FGF7, 0.25 μM Cyclopamine-KAAD, 2 μM retinoic acid (RA) and 100 ng/ml of Noggin for four days, or • d. Treatment 2: DMEM (high glucose)+1% B27 (Invitrogen, CA)+50 ng/ml FGF7, 0.25 μM Cyclopamine-KAAD, 2 μM retinoic acid (RA), 100 ng/ml of Noggin, 20 ng/ml activin A, for four days, or • e. Treatment 3: DMEM (high glucose)+1% B27 (Invitrogen, CA)+50 ng/ml FGF7, 0.25 μM Cyclopamine-KAAD, 2 μM retinoic acid (RA), 100 ng/ml of Noggin, 1 μM ALK5 inhibitor II, for four days.
(§2) Cultures were sampled in duplicate on stage 3 day 4, and analyzed for expression of pancreatic markers using real-time PCR. Cultures also were fixed in parallel for immunofluorescence analysis.

[2] = test system: human embryonic stem cell line H1; experiment: Immunofluorescence analysis of marker expression at stage 3 day 4 (FIG. 2, FIG. 3)
Description: as §1, §2
Treatment 1 (FGF7, retinoic acid and Noggin) induced the expression of NKX6.1 and NGN3.
This is in contrast with PDX1 expressing cells generated by using DMEM/F12 supplemented with 1% B27 (Invitrogen, CA)+50 ng/ml FGF7, 0.25 μM Cyclopamine-KAAD, 2 μM retinoic acid (RA), 100 ng/ml of Noggin, 20 ng/ml activin A, wherein most PDX1 expressing cells also expressed CDX2.

[3] = test system: human embryonic stem cell line H1; experiment: Real-time PCR of pancreatic markers at stage 3 day 4, activin A 20 or 50 ng/ml added at stage 3 (FIG. 1); conditions: 20 or 50 ng/ml activin A with FGF7, cyclopamine-KAAD, retinoic acid, Noggin
Description: Briefly, cells of the human embryonic stem cell line H1 were cultured on MATRIGEL™ (1:30 dilution) coated dishes and RPMI medium supplemented with 2% BSA, 100 ng/ml activin A, 20 ng/ml WNT-3a, 8 ng/ml of bFGF for one day, followed by treatment with RPMI media supplemented with 2% BSA, 100 ng/ml activin A, 8 ng/ml of bFGF for an additional two days (Stage 1), then • a. DMEM/F12+2% BSA+50 ng/ml FGF7+0.25 μM Cyclopamine-KAAD for three days (Stage 2), then • b. DMEM-High glucose+1% B27+50 ng/ml FGF7+0.25 μM Cyclopamine-KAAD+2 μM Retinoic acid (RA)+100 ng/ml of Noggin+20 ng/ml activin A or 50 ng/ml activin A for four days (Stage 3).
As a control, separate populations of cells were treated with DMEM High glucose, supplemented with 1% B27, 50 ng/ml FGF7, 0.25 μM Cyclopamine-KAAD, 2 μM retinoic acid (RA), and 100 ng/ml of Noggin.
Cultures were sampled in duplicate on stage 3 day 4, and analyzed for expression of pancreatic markers using real-time PCR.
A down-regulation of NGN3 expression was also observed in the cells at stage 3 day 4.

Molecule	relative expression level of NKX6.1 [1]	relative expression level of PDX1 [1]	expression of NGN3 / number of NGN3 expressing cells [2]	NGN3 expression [3]	NKX6.1 expression ([3]; real-time PCR, versus cells receiving no activin A)	expression of NKX6.1 / number of NKX6.1 expressing cells [2]
Cc1cccc(-c2[nH]ncc2-c2ccc3ncccc3n2)n1 [ALK5 inhibitor II]	decrease	No significant impact	significantly increased	–	–	–
activin A (protein, UniProt P08476 311-426, looked up, Inhibin beta A chain, a member of the TGF-β superfamily (R&D Systems)) Inhibin beta A chain: GLECDGKVNICCKKQFFVSFKDIGWNDWIIAPSGYHANYCEGECPSHIAGTSGSSLSFHSTVINHYRMRGHSPFANLKSCCVPTKLRPMSMLYYDDGQNIIKKDIQNMIVEECGCS	–	–	blocked	down-regulation	increase	significantly increased
